Source: patent publication CN114805590A (SUNSHINE GUOJIAN PHARMACEUTICAL SHANGHAI CO LTD, dated 2022)

How the values were obtained:
HER2-DI-DIII-L295P/H296N = biological target: T1, HER2-DI-DIII-L295P/H296N (Homo sapiens (Human), UniProt P04626 23-510); test: ELISA, plate coated with HER2-DI-DIII-L295P/H296N
T1 construct: also called HER2-DI-DIII-L295/H296N

HER2-DI-DIII-his = biological target: T2, HER2-DI-DIII-his (Homo sapiens (Human), UniProt P04626 23-510); test: ELISA, plate coated with HER2-DI-DIII-his, detection with HRP-anti human IgG Fc
T2 construct: also called HER2-ECD-DI-DIII

[1] = biological target: T3, HER2 (on HER2高表达细胞株 N87 / BT474) (UniProt P04626 23-1255, limits assumed); test: cell-based or functional assay
[2] = biological target: T4, HER2-DI-DIII-V483A/D480A/E485A (Homo sapiens (Human), UniProt P04626 23-513); test: ELISA, plate coated with HER2-DI-DIII-V483A/D480A/E485A
T4 chain: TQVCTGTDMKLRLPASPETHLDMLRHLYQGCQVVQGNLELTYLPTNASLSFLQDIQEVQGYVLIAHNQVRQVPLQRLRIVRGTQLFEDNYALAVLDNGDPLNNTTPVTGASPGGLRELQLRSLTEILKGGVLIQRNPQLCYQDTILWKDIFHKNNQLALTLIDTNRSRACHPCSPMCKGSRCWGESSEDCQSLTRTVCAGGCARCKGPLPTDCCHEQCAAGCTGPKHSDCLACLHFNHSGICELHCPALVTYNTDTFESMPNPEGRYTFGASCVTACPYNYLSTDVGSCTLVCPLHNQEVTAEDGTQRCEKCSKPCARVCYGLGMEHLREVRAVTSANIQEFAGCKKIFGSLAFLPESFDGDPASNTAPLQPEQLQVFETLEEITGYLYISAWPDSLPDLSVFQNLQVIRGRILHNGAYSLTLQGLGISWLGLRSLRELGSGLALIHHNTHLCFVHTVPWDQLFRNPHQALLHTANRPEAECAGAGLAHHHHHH

[3] = biological target: T3, HER2 (on HER2高表达细胞株 N87 / BT474); test: cell-based or functional assay; remark: listed apart in the source

- EC50 (HER2-DI-DIII-L295P/H296N): 0.027 nM
- EC50 (HER2-DI-DIII-his): 0.043 nM
- 最大抑制率(%), BT474细胞增殖 (CCK8) [1]: 47.1%
- binding result [2]: no binding (tested: 最高浓度为10nM)
- 最大抑制率(%), N87细胞增殖 (CCK8) [3]: 41.8%
B1: 抗HER2抗体612 (antibody, V domains shown)
VH: QVQLVQSGAEVKKPGASVKVSCKGSGYTFTDYAIHWVRQAPGQSLEWIGVFSIYYENINYNQKFKGRATMTVDKSTSTAYMELRSLRSDDTAVYYCARRDGGTINYWGQGTLVTVSS
VL: DVVMTQSPLSLPVTLGQPASISCRSSQSLVHSNGNTYLHWYQQRPGQSPRLLIYKVSNRFSGVPDRFSGSGSGTDFTLKISRVEAEDVGVYFCSQSTHIPWTFGQGTKVEIK
notes: No visible text gives the full heavy chain; also called 19H6-Hu
